Consider two molecules from patent US20210332115A1 (Sanofi, published 2021).

The target of assay [1] is T1, Homo sapiens factor Bb protein (human, UniProt P00751 260-764). The experiment in a line: cell-based or functional assay.
The target of a further assay is T2, aCls (Comptech A104) (UniProt P09871 16-688).
T2 construct: the active enzyme is a two-chain form of this precursor; also called aC1s
T2 sequence (looked up): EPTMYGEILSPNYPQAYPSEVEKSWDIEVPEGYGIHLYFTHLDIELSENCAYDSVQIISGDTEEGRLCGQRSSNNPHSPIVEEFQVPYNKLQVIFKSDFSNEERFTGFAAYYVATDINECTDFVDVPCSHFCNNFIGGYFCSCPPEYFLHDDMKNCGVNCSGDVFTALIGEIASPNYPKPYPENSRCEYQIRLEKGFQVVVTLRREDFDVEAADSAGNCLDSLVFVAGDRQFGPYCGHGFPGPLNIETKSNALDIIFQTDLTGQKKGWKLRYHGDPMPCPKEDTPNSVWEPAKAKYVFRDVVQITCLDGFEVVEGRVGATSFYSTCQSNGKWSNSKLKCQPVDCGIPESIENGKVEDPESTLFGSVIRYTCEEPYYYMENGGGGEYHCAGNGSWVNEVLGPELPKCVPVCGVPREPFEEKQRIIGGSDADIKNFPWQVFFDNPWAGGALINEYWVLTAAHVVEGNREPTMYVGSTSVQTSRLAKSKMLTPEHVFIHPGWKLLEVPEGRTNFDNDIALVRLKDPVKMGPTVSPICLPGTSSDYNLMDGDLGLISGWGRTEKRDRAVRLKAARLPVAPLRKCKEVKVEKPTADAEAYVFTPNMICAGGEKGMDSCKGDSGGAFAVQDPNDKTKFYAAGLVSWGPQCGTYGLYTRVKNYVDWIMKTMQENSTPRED
The experiment in a line: ELISA, target coated at 2.5 µg/mL, biotinylated antibody titrated, streptavidin-HRP, OD450 background subtracted. How it is done:
(§1) Briefly, complement and plasma proteins were coated onto ELISA plates at 2. 5 μg/mL in PBS overnight at 4° C. Plates were then blocked with Casein for 1 hour at room temperature and washed four times with 1× DPBS/0.05% Tween-20 followed by a single wash with 1× DPBS. Serial dilutions starting at 50 μg/ml of biotinylated chimeric parent or VH6/VK7-IgG4v2 were added to the plate in PBS/0.1%casein/0.1%Tween-20 and incubated for 2 hours at room temperature. Plates were washed as described and a 1:10,000 dilution of streptavidin-HRP (Southern Biotech 7100-05) in PBS/0.1% casein/0.1% Tween-20 was added to the plate and incubated for 30 minutes at room temperature. Plates were again washed and Ultra TMP ELISA (Thermo 34028) was added to the plate for 1 minute, followed by stop solution). OD 450 nm was read in a plate reader and background at 620 nm was subtracted. Both the chimeric parent (FIG. 8A) and the humanized variant (FIG. 8B) show complete specificity for factor Bb.

The target of a further assay is T3, C1r (Comptech A102) (UniProt P00736 18-705).
T3 sequence (looked up): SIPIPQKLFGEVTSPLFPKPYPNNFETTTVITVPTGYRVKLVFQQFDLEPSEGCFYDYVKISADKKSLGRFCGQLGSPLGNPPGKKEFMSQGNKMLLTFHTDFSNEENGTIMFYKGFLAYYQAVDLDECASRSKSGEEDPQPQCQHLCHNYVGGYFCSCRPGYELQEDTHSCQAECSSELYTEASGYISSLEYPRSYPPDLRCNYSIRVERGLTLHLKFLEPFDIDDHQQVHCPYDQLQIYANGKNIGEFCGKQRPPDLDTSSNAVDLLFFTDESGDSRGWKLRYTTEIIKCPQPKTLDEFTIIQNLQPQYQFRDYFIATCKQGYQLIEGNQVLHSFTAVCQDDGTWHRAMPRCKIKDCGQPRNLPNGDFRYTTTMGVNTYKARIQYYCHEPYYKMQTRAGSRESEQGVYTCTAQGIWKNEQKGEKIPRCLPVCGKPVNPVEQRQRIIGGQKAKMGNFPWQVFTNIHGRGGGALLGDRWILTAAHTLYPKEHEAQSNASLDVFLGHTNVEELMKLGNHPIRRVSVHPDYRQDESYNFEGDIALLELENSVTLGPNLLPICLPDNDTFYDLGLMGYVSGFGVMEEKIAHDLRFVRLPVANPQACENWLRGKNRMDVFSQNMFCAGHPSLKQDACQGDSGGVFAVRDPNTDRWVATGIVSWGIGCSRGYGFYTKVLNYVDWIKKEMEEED
Described as above. How it is done: as §1

The target in a further assay is T4, C2a (prepared from C2) (UniProt P06681 244-752, limits assumed).
T4 construct: domain: C2a
T4 sequence (looked up): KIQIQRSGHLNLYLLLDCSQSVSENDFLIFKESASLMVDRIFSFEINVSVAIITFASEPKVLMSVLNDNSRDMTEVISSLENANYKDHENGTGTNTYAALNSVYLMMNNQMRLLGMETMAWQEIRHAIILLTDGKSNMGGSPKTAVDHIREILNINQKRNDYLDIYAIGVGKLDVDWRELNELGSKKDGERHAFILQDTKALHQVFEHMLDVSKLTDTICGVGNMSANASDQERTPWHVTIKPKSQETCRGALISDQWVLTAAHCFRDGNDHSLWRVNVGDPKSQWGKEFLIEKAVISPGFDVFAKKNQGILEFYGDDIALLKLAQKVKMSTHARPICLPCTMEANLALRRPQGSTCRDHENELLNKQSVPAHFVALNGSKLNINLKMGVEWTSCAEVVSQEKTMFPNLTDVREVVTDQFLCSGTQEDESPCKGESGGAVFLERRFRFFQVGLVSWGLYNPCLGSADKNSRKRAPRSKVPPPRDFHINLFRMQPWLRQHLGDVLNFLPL
The assay is described as above. As for the experimental part: as §1

The target of assay [2] is thrombin (EMD Millipore 605195) (UniProt P00734 328-622). The assay is described as above. As for the experimental part: as §1
Assay [3] deals with factor D (Competech A136) (UniProt P00746 26-253). The description is as above. As for the experimental part:
as §1

Assay [4] addresses T1, Homo sapiens factor Bb protein. The experiment in a line: ELISA, factor Bb coated at 2.5 µg/mL, biotinylated antibody titrated, streptavidin-HRP, OD450 background subtracted. How it is done:
as §1

T1 sequence (P00751 260-764 limits assumed): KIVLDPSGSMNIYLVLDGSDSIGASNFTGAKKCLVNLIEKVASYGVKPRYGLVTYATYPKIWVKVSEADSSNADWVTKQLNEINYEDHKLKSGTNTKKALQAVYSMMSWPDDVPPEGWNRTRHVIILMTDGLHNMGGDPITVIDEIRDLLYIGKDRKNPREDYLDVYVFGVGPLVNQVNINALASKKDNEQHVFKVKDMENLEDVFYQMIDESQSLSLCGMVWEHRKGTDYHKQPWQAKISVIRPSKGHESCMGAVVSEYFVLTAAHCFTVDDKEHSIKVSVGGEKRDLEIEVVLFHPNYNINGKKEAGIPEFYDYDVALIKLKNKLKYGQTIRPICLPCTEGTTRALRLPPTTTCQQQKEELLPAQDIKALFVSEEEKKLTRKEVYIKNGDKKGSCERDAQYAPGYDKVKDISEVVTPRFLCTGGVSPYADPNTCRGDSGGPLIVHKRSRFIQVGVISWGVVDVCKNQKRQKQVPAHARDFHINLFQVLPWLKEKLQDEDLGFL
factor D (Competech A136), sequence (P00746 26-253 limits assumed): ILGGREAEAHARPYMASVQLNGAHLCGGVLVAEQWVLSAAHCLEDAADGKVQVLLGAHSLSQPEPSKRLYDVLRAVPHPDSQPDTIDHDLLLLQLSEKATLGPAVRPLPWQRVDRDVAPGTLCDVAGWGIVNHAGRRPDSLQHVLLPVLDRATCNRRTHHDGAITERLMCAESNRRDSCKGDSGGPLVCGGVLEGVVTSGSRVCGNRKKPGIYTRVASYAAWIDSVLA

B1: VH0/Vκ0 (Chimeric) (antibody, V domains shown)
VH: EVQLVESGGALVKPGGSLKLSCAASGFTFSNYAMSWVRQTPEKRLEWVATISNRGSYTYYPDSVKGRFTISRDNAKNTLYLQMSSLRSEDTALYYCARERPMDYWGQGTSVTVSS
VL: DIVMTQSHKFMSTSVGDRVSITCKASQDVGTAVAWYQQKPGQSPKLLIYWASTRHTGVPDRFTGSGSGTDFTLTITNVQSEDLAVYFCHQHSSNPLTFGAGTKLELK
notes: also called chimeric antibody
As for B1, the “AP Assay IC50” value in assay [1] is 24 nM. The binding result (with aCls (Comptech A104); with C1r (Comptech A102); with C2a (prepared from C2); in assay [2]; in assay [3]) was “no binding (tested: about 10^5 ng/mL (log 5 on the axis))” each time. Besides, in assay [4], the “EC50 (read off the curve)” value is ~10 ng/mL.

B2: VH6/Vκ7-IgG4v2 (antibody)
heavy: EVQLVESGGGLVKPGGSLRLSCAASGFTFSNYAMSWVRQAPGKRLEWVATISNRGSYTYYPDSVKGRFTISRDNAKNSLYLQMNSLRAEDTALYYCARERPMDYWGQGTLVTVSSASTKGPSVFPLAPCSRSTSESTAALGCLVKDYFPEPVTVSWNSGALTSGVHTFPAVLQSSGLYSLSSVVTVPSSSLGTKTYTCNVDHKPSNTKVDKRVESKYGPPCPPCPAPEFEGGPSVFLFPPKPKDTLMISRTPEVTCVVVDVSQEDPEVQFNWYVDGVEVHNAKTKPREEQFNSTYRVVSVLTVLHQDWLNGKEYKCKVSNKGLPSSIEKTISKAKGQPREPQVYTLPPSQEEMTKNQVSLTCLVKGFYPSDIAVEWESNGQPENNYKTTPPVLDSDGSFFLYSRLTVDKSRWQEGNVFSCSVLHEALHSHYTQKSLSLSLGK
light: DIQMTQSPSTLSASVGDRVTITCKASQDVGTAVAWYQQKPGKAPKLLIYWASTRHTGVPDRFSGSGSGTDFTLTISSLQAEDFAVYFCHQHSSNPLTFGQGTKLEIKRTVAAPSVFIFPPSDEQLKSGTASVVCLLNNFYPREAKVQWKVDNALQSGNSQESVTEQDSKDSTYSLSSTLTLSKADYEKHKVYACEVTHQGLSSPVTKSFNRGEC
notes: also called VH6/VK7-IgG4v2; VH6/VK7-IgG4v2_HEK
As for B2, the binding result (with aCls (Comptech A104); in the assay with C1r (Comptech A102); with C2a (prepared from C2); in assay [2]; in assay [3]) was “no binding” throughout. Also, the “EC50 (read off the curve)” value in assay [4] is ~20 ng/mL.
